Square brackets hold non-standard residues; d marks the D form. Aib = CC(C)(N)C(=O)O
T1: human GLP-2 receptor (hGLP2-R) (human, UniProt O95838)
T1 sequence: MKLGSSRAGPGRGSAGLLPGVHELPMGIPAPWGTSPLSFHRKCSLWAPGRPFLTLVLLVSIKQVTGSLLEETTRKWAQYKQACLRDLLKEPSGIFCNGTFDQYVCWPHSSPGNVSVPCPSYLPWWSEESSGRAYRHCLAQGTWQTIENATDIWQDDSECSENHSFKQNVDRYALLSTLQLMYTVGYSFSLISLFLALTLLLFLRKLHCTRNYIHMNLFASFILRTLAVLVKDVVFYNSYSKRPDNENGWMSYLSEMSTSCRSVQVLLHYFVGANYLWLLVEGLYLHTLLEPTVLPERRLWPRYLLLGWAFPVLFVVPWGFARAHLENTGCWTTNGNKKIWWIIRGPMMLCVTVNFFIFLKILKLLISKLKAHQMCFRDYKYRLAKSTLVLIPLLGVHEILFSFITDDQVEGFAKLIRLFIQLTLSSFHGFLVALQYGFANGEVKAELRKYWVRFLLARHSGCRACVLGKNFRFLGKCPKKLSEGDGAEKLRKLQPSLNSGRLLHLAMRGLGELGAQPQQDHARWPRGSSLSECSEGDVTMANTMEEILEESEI


Columns and labels:
[1] = molecular target: human glucagon-like peptide 1 receptor (GLP-1R) (human, UniProt P43220); assay: cell-based or functional assay
[2] = molecular target: T1, human GLP-2 receptor (hGLP2-R); assay: cell-based or functional assay

| EC50 GLP-1 (nM); cAMP AlphaScreen [1] [nM] | EC50 GLP-2 (nM); cAMP AlphaScreen [2] [nM] | Binder |
| --- | --- | --- |
| 0.012 | 0.26 | H-H[Aib]EGTFTSELATILDEQAARDFIAWLIAYKITD-OH (SMILES CC[C@H](C)[C@H](NC(=O)[C@H](CC(C)C)NC(=O)[C@H](Cc1c[nH]c2ccccc12)NC(=O)[C@H](C)NC(=O)[C@@H](NC(=O)[C@H](Cc1ccccc1)NC(=O)[C@H](CC(=O)O)NC(=O)[C@H](CCCNC(=N)N)NC(=O)[C@H](C)NC(=O)[C@H](C)NC(=O)[C@H](CCC(N)=O)NC(=O)[C@H](CCC(=O)O)NC(=O)[C@H](CC(=O)O)NC(=O)[C@H](CC(C)C)NC(=O)[C@@H](NC(=O)[C@@H](NC(=O)[C@H](C)NC(=O)[C@H](CC(C)C)NC(=O)[C@H](CCC(=O)O)NC(=O)[C@H](CO)NC(=O)[C@@H](NC(=O)[C@H](Cc1ccccc1)NC(=O)[C@@H](NC(=O)CNC(=O)[C@H](CCC(=O)O)NC(=O)C(C)(C)NC(=O)[C@@H](N)Cc1c[nH]cn1)[C@@H](C)O)[C@@H](C)O)[C@@H](C)O)[C@@H](C)CC)[C@@H](C)CC)C(=O)N[C@@H](C)C(=O)N[C@@H](Cc1ccc(O)cc1)C(=O)N[C@@H](CCCCN)C(=O)N[C@H](C(=O)N[C@H](C(=O)N[C@@H](CC(=O)O)C(=O)O)[C@@H](C)O)[C@@H](C)CC) [Compound 20] |
| 0.12 | 0.034 | H-H[Aib]EGSFTSELATILDEQAARDFIAWLYEHKITD-OH (SMILES CC[C@H](C)[C@H](NC(=O)[C@H](Cc1ccccc1)NC(=O)[C@H](CC(=O)O)NC(=O)[C@H](CCCNC(=N)N)NC(=O)[C@H](C)NC(=O)[C@H](C)NC(=O)[C@H](CCC(N)=O)NC(=O)[C@H](CCC(=O)O)NC(=O)[C@H](CC(=O)O)NC(=O)[C@H](CC(C)C)NC(=O)[C@@H](NC(=O)[C@@H](NC(=O)[C@H](C)NC(=O)[C@H](CC(C)C)NC(=O)[C@H](CCC(=O)O)NC(=O)[C@H](CO)NC(=O)[C@@H](NC(=O)[C@H](Cc1ccccc1)NC(=O)[C@H](CO)NC(=O)CNC(=O)[C@H](CCC(=O)O)NC(=O)C(C)(C)NC(=O)[C@@H](N)Cc1c[nH]cn1)[C@@H](C)O)[C@@H](C)O)[C@@H](C)CC)C(=O)N[C@@H](C)C(=O)N[C@@H](Cc1c[nH]c2ccccc12)C(=O)N[C@@H](CC(C)C)C(=O)N[C@@H](Cc1ccc(O)cc1)C(=O)N[C@@H](CCC(=O)O)C(=O)N[C@@H](Cc1c[nH]cn1)C(=O)N[C@@H](CCCCN)C(=O)N[C@H](C(=O)N[C@H](C(=O)N[C@@H](CC(=O)O)C(=O)O)[C@@H](C)O)[C@@H](C)CC) [Compound 23] |
| 0.008 | 0.062 | H-H[Aib]EGSFTSELATILDEQAARDFIAWLIAQKITD-OH (SMILES CC[C@H](C)[C@H](NC(=O)[C@H](CC(C)C)NC(=O)[C@H](Cc1c[nH]c2ccccc12)NC(=O)[C@H](C)NC(=O)[C@@H](NC(=O)[C@H](Cc1ccccc1)NC(=O)[C@H](CC(=O)O)NC(=O)[C@H](CCCNC(=N)N)NC(=O)[C@H](C)NC(=O)[C@H](C)NC(=O)[C@H](CCC(N)=O)NC(=O)[C@H](CCC(=O)O)NC(=O)[C@H](CC(=O)O)NC(=O)[C@H](CC(C)C)NC(=O)[C@@H](NC(=O)[C@@H](NC(=O)[C@H](C)NC(=O)[C@H](CC(C)C)NC(=O)[C@H](CCC(=O)O)NC(=O)[C@H](CO)NC(=O)[C@@H](NC(=O)[C@H](Cc1ccccc1)NC(=O)[C@H](CO)NC(=O)CNC(=O)[C@H](CCC(=O)O)NC(=O)C(C)(C)NC(=O)[C@@H](N)Cc1c[nH]cn1)[C@@H](C)O)[C@@H](C)O)[C@@H](C)CC)[C@@H](C)CC)C(=O)N[C@@H](C)C(=O)N[C@@H](CCC(N)=O)C(=O)N[C@@H](CCCCN)C(=O)N[C@H](C(=O)N[C@H](C(=O)N[C@@H](CC(=O)O)C(=O)O)[C@@H](C)O)[C@@H](C)CC) [Compound 25] |
| 0.28 | 0.042 | H-H[Aib]EGSFTSELATILDEQAARDFIAWLHAHKITD-OH (SMILES CC[C@H](C)[C@H](NC(=O)[C@H](Cc1ccccc1)NC(=O)[C@H](CC(=O)O)NC(=O)[C@H](CCCNC(=N)N)NC(=O)[C@H](C)NC(=O)[C@H](C)NC(=O)[C@H](CCC(N)=O)NC(=O)[C@H](CCC(=O)O)NC(=O)[C@H](CC(=O)O)NC(=O)[C@H](CC(C)C)NC(=O)[C@@H](NC(=O)[C@@H](NC(=O)[C@H](C)NC(=O)[C@H](CC(C)C)NC(=O)[C@H](CCC(=O)O)NC(=O)[C@H](CO)NC(=O)[C@@H](NC(=O)[C@H](Cc1ccccc1)NC(=O)[C@H](CO)NC(=O)CNC(=O)[C@H](CCC(=O)O)NC(=O)C(C)(C)NC(=O)[C@@H](N)Cc1c[nH]cn1)[C@@H](C)O)[C@@H](C)O)[C@@H](C)CC)C(=O)N[C@@H](C)C(=O)N[C@@H](Cc1c[nH]c2ccccc12)C(=O)N[C@@H](CC(C)C)C(=O)N[C@@H](Cc1c[nH]cn1)C(=O)N[C@@H](C)C(=O)N[C@@H](Cc1c[nH]cn1)C(=O)N[C@@H](CCCCN)C(=O)N[C@H](C(=O)N[C@H](C(=O)N[C@@H](CC(=O)O)C(=O)O)[C@@H](C)O)[C@@H](C)CC) [Compound 22] |

Continued, binder first:

| Binder | EC50 GLP-1 (nM); cAMP AlphaScreen [1] [nM] | EC50 GLP-2 (nM); cAMP AlphaScreen [2] [nM] |
| --- | --- | --- |
| H-H[Aib]EGTFTSELATILDEQAARDFIAWLHQHKITD-OH (SMILES CC[C@H](C)[C@H](NC(=O)[C@H](Cc1ccccc1)NC(=O)[C@H](CC(=O)O)NC(=O)[C@H](CCCNC(=N)N)NC(=O)[C@H](C)NC(=O)[C@H](C)NC(=O)[C@H](CCC(N)=O)NC(=O)[C@H](CCC(=O)O)NC(=O)[C@H](CC(=O)O)NC(=O)[C@H](CC(C)C)NC(=O)[C@@H](NC(=O)[C@@H](NC(=O)[C@H](C)NC(=O)[C@H](CC(C)C)NC(=O)[C@H](CCC(=O)O)NC(=O)[C@H](CO)NC(=O)[C@@H](NC(=O)[C@H](Cc1ccccc1)NC(=O)[C@@H](NC(=O)CNC(=O)[C@H](CCC(=O)O)NC(=O)C(C)(C)NC(=O)[C@@H](N)Cc1c[nH]cn1)[C@@H](C)O)[C@@H](C)O)[C@@H](C)O)[C@@H](C)CC)C(=O)N[C@@H](C)C(=O)N[C@@H](Cc1c[nH]c2ccccc12)C(=O)N[C@@H](CC(C)C)C(=O)N[C@@H](Cc1c[nH]cn1)C(=O)N[C@@H](CCC(N)=O)C(=O)N[C@@H](Cc1c[nH]cn1)C(=O)N[C@@H](CCCCN)C(=O)N[C@H](C(=O)N[C@H](C(=O)N[C@@H](CC(=O)O)C(=O)O)[C@@H](C)O)[C@@H](C)CC) [Compound 21] | 0.049 | 0.11 |
| H-H[Aib]EGSFTSELATILDEQAARDFIAWLQAHKITD-OH (SMILES CC[C@H](C)[C@H](NC(=O)[C@H](Cc1ccccc1)NC(=O)[C@H](CC(=O)O)NC(=O)[C@H](CCCNC(=N)N)NC(=O)[C@H](C)NC(=O)[C@H](C)NC(=O)[C@H](CCC(N)=O)NC(=O)[C@H](CCC(=O)O)NC(=O)[C@H](CC(=O)O)NC(=O)[C@H](CC(C)C)NC(=O)[C@@H](NC(=O)[C@@H](NC(=O)[C@H](C)NC(=O)[C@H](CC(C)C)NC(=O)[C@H](CCC(=O)O)NC(=O)[C@H](CO)NC(=O)[C@@H](NC(=O)[C@H](Cc1ccccc1)NC(=O)[C@H](CO)NC(=O)CNC(=O)[C@H](CCC(=O)O)NC(=O)C(C)(C)NC(=O)[C@@H](N)Cc1c[nH]cn1)[C@@H](C)O)[C@@H](C)O)[C@@H](C)CC)C(=O)N[C@@H](C)C(=O)N[C@@H](Cc1c[nH]c2ccccc12)C(=O)N[C@@H](CC(C)C)C(=O)N[C@@H](CCC(N)=O)C(=O)N[C@@H](C)C(=O)N[C@@H](Cc1c[nH]cn1)C(=O)N[C@@H](CCCCN)C(=O)N[C@H](C(=O)N[C@H](C(=O)N[C@@H](CC(=O)O)C(=O)O)[C@@H](C)O)[C@@H](C)CC) [Compound 24] | 0.042 | 0.049 |
| H-H[Aib]EGSFTSELATILDEQAARDFIAWLIAHKITD-OH (SMILES CC[C@H](C)[C@H](NC(=O)[C@H](CC(C)C)NC(=O)[C@H](Cc1c[nH]c2ccccc12)NC(=O)[C@H](C)NC(=O)[C@@H](NC(=O)[C@H](Cc1ccccc1)NC(=O)[C@H](CC(=O)O)NC(=O)[C@H](CCCNC(=N)N)NC(=O)[C@H](C)NC(=O)[C@H](C)NC(=O)[C@H](CCC(N)=O)NC(=O)[C@H](CCC(=O)O)NC(=O)[C@H](CC(=O)O)NC(=O)[C@H](CC(C)C)NC(=O)[C@@H](NC(=O)[C@@H](NC(=O)[C@H](C)NC(=O)[C@H](CC(C)C)NC(=O)[C@H](CCC(=O)O)NC(=O)[C@H](CO)NC(=O)[C@@H](NC(=O)[C@H](Cc1ccccc1)NC(=O)[C@H](CO)NC(=O)CNC(=O)[C@H](CCC(=O)O)NC(=O)C(C)(C)NC(=O)[C@@H](N)Cc1c[nH]cn1)[C@@H](C)O)[C@@H](C)O)[C@@H](C)CC)[C@@H](C)CC)C(=O)N[C@@H](C)C(=O)N[C@@H](Cc1c[nH]cn1)C(=O)N[C@@H](CCCCN)C(=O)N[C@H](C(=O)N[C@H](C(=O)N[C@@H](CC(=O)O)C(=O)O)[C@@H](C)O)[C@@H](C)CC) [Compound 1] | 0.014 | 0.036 |

From US11130793B2, “GLP-1/GLP-2 dual agonists” (Zealand Pharma A/S, priority 2016, dated 2021)
